Measured values taken from patent publication US20100092489A1 (Genmab, published 2010).

Assays:
[1] = target: T1, human CD38 expressed on cells (CHO-CD38, Daudi-luc, fresh multiple myeloma tumor cells) (human, UniProt P28907 1-300); assay: flow cytometry on CHO-CD38 cells, rabbit anti-human IgG-FITC
T1 construct: the cell that carries it is named under assay in each row; also called CD38-CHO; cellular expressed CD38
Protocol: (§1) After harvesting and counting, Daudi-luc cells, CHO cells transfected with CD38 and control CHO cells were resuspended in PBS (1×10⁶ cells/ml). Then, cells were put in 96-well V-bottom plates (100 μl/well) and washed twice in PBS-BSA (PBS supplemented with 0.1% BSA and 0.02% Na-azide). Thereafter, 50 μl antibody solution in PBS-BSA was added to the cells (4° C., 30 min). After washing three times in PBS-BSA, 50 μl (1:400 dilution) of rabbit anti-human IgG-FITC in PBS-BSA was added (4° C. in the dark, 30 min). Cells were washed three times and specific binding of CD38-antibodies to CHO-CD38 and Daudi-luc cells was detected by flow cytometry.

[2] = target: T2, HA-CD38 (HA-tagged extracellular domain of human CD38, wild type) (human, UniProt P28907 43-300); assay: SPR, Biacore 3000, 25° C., antibody immobilized on CM-5 chip, HA-tagged CD38 flowed over; mean of 3 experiments ± SD
T2 construct: The signal peptide SPHMM of the construct is not part of the secreted protein; also called HA-tagged CD38; wt human CD38; not shown: N-terminal HA-tag introduced by PCR primer cd38forha

[3] = target: T1, human CD38 expressed on cells …; assay: flow cytometry on Daudi-luc cells, rabbit anti-human IgG-FITC
Protocol: as §1

[4] = target: T1, human CD38 expressed on cells …; assay: cell-based or functional assay
[5] = target: T1, human CD38 expressed on cells …; assay: cell-based or functional assay; remark: listed apart in the source
[6] = target: T1, human CD38 expressed on cells …; assay: flow cytometry on fresh MM tumor cells, FITC-labeled antibody
[7] = target: T1, human CD38 expressed on cells …; assay: cell-based or functional assay; remark: listed apart in the source
[8] = target: T1, human CD38 expressed on cells …; assay: cell-based or functional assay; remark: listed apart in the source

B1: antibody -003 (antibody, human IgG1, V domains shown)
VH: not shown
VL: DIQMTQSPSSLSASVGDRVTITCRASQGISSWLAWYQQKPEKAPKSLIYAASSLQSGVPSRFSGSGSGTDFTLTISSLQPEDFATYYCQQYNSYPRTFGQGTKVEIK
notes: Human monoclonal IgG1 antibody; Recombinant form made with human IgG1 heavy chain constant region (pConG1f0.4) and kappa light chain constant region (pConKappa0.4); FITC-labelled in some assays; also called HuMab -003; -003-2F5
[1]
  EC50: 0.54 µg/mL
[2]
  Ka: 1.14e+09 M⁻¹
  Kd: 885 pM
[3]
  EC50: 0.26 µg/mL
[4]
  EC50 Daudi-luc, ADCC (51Cr release): 0.009 µg/mL
  EC50 MM cells, ADCC (51Cr release): 0.027 µg/mL
[5]
  EC50, CDC of CHO-CD38 cells (n = 2): 4.5 µg/mL
[6]
  EC50: 0.56 µg/mL
[7]
  Log EC50, ADCC of Daudi target cells (n=5): 1.17
[8]
  EC50 CD38-CHO, CDC: 3.14 µg/mL
  EC50 Daudi-luc, CDC: > 90 µg/mL

B2: antibody -024 (antibody, human IgG1, V domains shown)
VH: EVQLVQSGAEVKKPGESLKISCKGSGYSFSNYWIGWVRQMPGKGLEWMGIIYPHDSDARYSPSFQGQVTFSADKSISTAYLQWSSLKASDTAMYYCARHVGWGSRYWYFDLWGRGTLVTVSS
VL: EIVLTQSPATLSLSPGERATLSCRASQSVSSYLAWYQQKPGQAPGLLIYDASNRASGIPARFSGSGSGTDFTLTISSLEPEDFAVYYCQQRSNWPLTFGGGTKVEIK
notes: Human monoclonal IgG1 antibody; Recombinant form made with human IgG1 heavy chain constant region (pConG1f0.4) and kappa light chain constant region (pConKappa0.4)
[1]
  EC50: 0.08 µg/mL
[3]
  EC50: 0.05 µg/mL
[4]
  EC50 Daudi-luc, ADCC (51Cr release): 0.0097 µg/mL
  EC50 MM cells, ADCC (51Cr release): 0.056 µg/mL
[6]
  EC50: 0.02 µg/mL
[8]
  EC50 CD38-CHO, CDC: 0.24 µg/mL
  EC50 Daudi-luc, CDC: > 90 µg/mL
